Reference: article PMC8251345, “Entropic pressure controls the oligomerization of the Vibrio cholerae ParD2 antitoxin” (Acta Crystallographica. Section D, Structural Biology, 2021)
Several values for one entry are separate records, joined by “and”; a condition that tells them apart may be missing. Equal values may be shown once. Read-outs that look alike come from different tables or passages of the source.

B1: Vibrio cholerae ParD2 antitoxin (natural protein)
chain: MAKNTSITLGEHFDGFITSQIQSGRYGSASEVIRSALRLLENQETKLQSLRQLLIEGEQSGDADYDLDSFINELDSENIR
notes: also called VcParD2

Key:
[1] = biological target: N-terminal domain of Vibrio cholerae ParD2 as crystallised (V. cholerae); experiment: crystal structure
[2] = biological target: N-terminal domain of Vibrio cholerae ParD2 as crystallised (V. cholerae); experiment: crystal structure; remark: listed apart in the source
[3] = biological target: the molecule itself; experiment: native MS
[4] = biological target: the molecule itself; experiment: SAXS (SEC-SAXS)
[5] = biological target: the molecule itself; experiment: […]; pH 8.0 and pH 5.6, […]

Row | Molecule | stoichiometry N [1] | stoichiometry N [2] | stoichiometry N [3] | stoichiometry N [4] | stoichiometry N [5]
1 | N-terminal domain of Vibrio cholerae ParD2 as crystallised (domain or fragment) | 2 | 16 |  |  | 
2 | B1 |  |  | 2 and 4 | 12 | 10 and 8
